The supplement of paper PMC11246515
± gives the standard deviation of the averaged measurements.

Assay: total protein half-life in vivo (active degradation + dilution); higher = more stable protein
[1] = E. coli NCM3722 delta-clpP delta-lon delta-hslV, growth: N-lim chemostat, doubling time 6 h
[2] = E. coli NCM3722 delta-hslV, growth: N-lim chemostat, doubling time 6 h
[3] = E. coli NCM3722 delta-lon, growth: N-lim chemostat, doubling time 6 h
[4] = E. coli NCM3722 delta-smpB, growth: N-lim chemostat, doubling time 6 h
[5] = wild type E. coli NCM3722, growth: C-lim chemostat, doubling time 3 h
[6] = wild type E. coli NCM3722, growth: C-lim chemostat, doubling time 6 h
[7] = wild type E. coli NCM3722, growth: C-lim chemostat, doubling time 12 h
[8] = wild type E. coli NCM3722, growth: N-lim chemostat, doubling time 6 h
[9] = wild type E. coli NCM3722, growth: N-lim chemostat, doubling time 12 h
[10] = wild type E. coli NCM3722, growth: P-lim chemostat, doubling time 6 h
[11] = wild type E. coli NCM3722, growth: P-lim chemostat, doubling time 12 h
[12] = E. coli NCM3722 delta-clpP, growth: N-lim chemostat, doubling time 6 h

Sequence: MIDLRSDTVTRPSRAMLEAMMAAPVGDDVYGDDPTVNALQDYAAELSGKEAAIFLPTGTQANLVALLSHCERGEEYIVGQAAHNYLFEAGGAAVLGSIQPQPIDAAADGTLPLDKVAMKIKPDDIHFARTKLLSLENTHNGKVLPREYLKEAWEFTRERNLALHVDGARIFNAVVAYGCELKEITQYCDSFTICLSKGLGTPVGSLLVGNRDYIKRAIRWRKMTGGGMRQSGILAAAGIYALKNNVARLQEDHDNAAWMAEQLREAGADVMRQDTNMLFVRVGEENAAALGEYMKARNVLINASPIVRLVTHLDVSREQLAEVAAHWRAFLAR
- total protein half-life in vivo [1]: 5.25 ± 0.99 h
- total protein half-life in vivo [2]: 4.88 ± 0.86 h
- total protein half-life in vivo [3]: 5.53 ± 0.73 h
- total protein half-life in vivo [4]: 4.18 ± 0.28 h
- total protein half-life in vivo [5]: 3.162 ± 0.023 h
- total protein half-life in vivo [6]: 5.88 ± 0.24 h
- total protein half-life in vivo [7]: 10.8 ± 0.43 h
- total protein half-life in vivo [8]: 4.39 ± 0.4 h
- total protein half-life in vivo [9]: 6.44 ± 0.27 h
- total protein half-life in vivo [10]: 5.87 ± 0.12 h
- total protein half-life in vivo [11]: 11.2 ± 1.5 h

Sequence: MIDYTAAGFTLLQGAHLYAPEDRGICDVLVANGKIIAVASNIPSDIVPNCTVVDLSGQILCPGFIDQHVHLIGGGGEAGPTTRTPEVALSRLTEAGVTSVVGLLGTDSISRHPESLLAKTRALNEEGISAWMLTGAYHVPSRTITGSVEKDVAIIDRVIGVKCAISDHRSAAPDVYHLANMAAESRVGGLLGGKPGVTVFHMGDSKKALQPIYDLLENCDVPISKLLPTHVNRNVPLFEQALEFARKGGTIDITSSIDEPVAPAEGIARAVQAGIPLARVTLSSDGNGSQPFFDDEGNLTHIGVAGFETLLETVQVLVKDYDFSISDALRPLTSSVAGFLNLTGKGEILPGNDADLLVMTPELRIEQVYARGKLMVKDGKACVKGTFETA
- total protein half-life in vivo [1]: 6.21 ± 0.27 h
- total protein half-life in vivo [12]: 5.9 ± 0.13 h
- total protein half-life in vivo [2]: 5.497 ± 0.0056 h
- total protein half-life in vivo [3]: 5.68 ± 0.064 h
- total protein half-life in vivo [4]: 5.3 ± 0.21 h
- total protein half-life in vivo [5]: 2.93 ± 0.1 h
- total protein half-life in vivo [6]: 5.97 ± 0.45 h
- total protein half-life in vivo [7]: 12.8 ± 0.66 h
- total protein half-life in vivo [8]: 5.29 ± 0.25 h
- total protein half-life in vivo [9]: 9.01 ± 0.33 h
- total protein half-life in vivo [10]: 6.11 ± 0.39 h
- total protein half-life in vivo [11]: 13.1 ± 0.29 h

Sequence: MIEFVYPHTQLVAGVDEVGRGPLVGAVVTAAVILDPARPIAGLNDSKKLSEKRRLALYEEIKEKALSWSLGRAEPHEIDELNILHATMLAMQRAVAGLHIAPEYVLIDGNRCPKLPMPAMAVVKGDSRVPEISAASILAKVTRDAEMAALDIVFPQYGFAQHKGYPTAFHLEKLAEHGATEHHRRSFGPVKRALGLAS
- total protein half-life in vivo [12]: 1.93 h
- total protein half-life in vivo [2]: 1.11 h
- total protein half-life in vivo [3]: 2.38 ± 0.2 h
- total protein half-life in vivo [4]: 1.39 ± 0.024 h
- total protein half-life in vivo [5]: 1.7 ± 0.042 h
- total protein half-life in vivo [6]: 2.67 ± 0.43 h
- total protein half-life in vivo [7]: 3.19 h
- total protein half-life in vivo [8]: 1.19 h
- total protein half-life in vivo [9]: 1.91 h
- total protein half-life in vivo [10]: 1.43 h
- total protein half-life in vivo [11]: 2.12 ± 0.71 h

Sequence: MIEILHEYWKPLLWTDGYRFTGVAITLWLLILSVVIGGVLALFLAIGRVSSNKYIQFPIWLFTYIFRGTPLYVQLLVFYSGMYTLEIVKGTEFLNAFFRSGLNCTVLALTLNTCAYTTEIFAGAIRSVPHGEIEAARAYGFSTFKMYRCIILPSALRIALPAYSNEVILMLHSTALAFTATVPDLLKIARDINAATYQPFTAFGIAAVLYLIISYVLISLFRRAEKRWLQHVKPSSTH [P0AEU3]
- total protein half-life in vivo [1]: > 8 h
- total protein half-life in vivo [12]: 6.1106 ± 0.00052 h
- total protein half-life in vivo [2]: 6.07 h
- total protein half-life in vivo [3]: 6.71 ± 0.91 h
- total protein half-life in vivo [4]: 7.16 ± 0.54 h
- total protein half-life in vivo [5]: > 4 h
- total protein half-life in vivo [6]: 5.71 ± 0.54 h
- total protein half-life in vivo [7]: 11.3 ± 1.3 h
- total protein half-life in vivo [8]: 6.75 ± 0.49 h
- total protein half-life in vivo [9]: 11 ± 3.6 h
- total protein half-life in vivo [10]: 6.32 h
- total protein half-life in vivo [11]: 11.92 ± 0.04 h

Sequence: MIELVIVSRLLEYPDAALWQHQQEMFEAIAASKNLPKEDAHALGIFLRDLTTMDPLDAQAQYSELFDRGRATSLLLFEHVHGESRDRGQAMVDLLAQYEQHGLQLNSRELPDHLPLYLEYLAQLPQSEAVEGLKDIAPILALLSARLQQRESRYAVLFDLLLKLANTAIDSDKVAEKIADEARDDTPQALDAVWEEEQVKFFADKGCGDSAITAHQRRFAGAVAPQYLNITTGGQH [P0AF26]
- total protein half-life in vivo [1]: 3.83 ± 0.37 h
- total protein half-life in vivo [2]: 0.814 h
- total protein half-life in vivo [3]: 2.04 ± 0.028 h

Sequence: MIEVKHLKTLQALRNCGSLAAAAATLHQTQSALSHQFSDLEQRLGFRLFVRKSQPLRFTPQGEILLQLANQVLPQISQALQACNEPQQTRLRIAIECHSCIQWLTPALENFHKNWPQVEMDFKSGVTFDPQPALQQGELDLVMTSDILPRSGLHYSPMFDYEVRLVLAPDHPLAAKTRITPEDLASETLLIYPVQRSRLDVWRHFLQPAGVSPSLKSVDNTLLLIQMVAARMGIAALPHWVVESFERQGLVVTKTLGEGLWSRLYAAVRDGEQRQPVTEAFIRSARNHACDHLPFVKSAERPTYDAPTVRPGSPARL [P0A9F9]
- total protein half-life in vivo [1]: 5.1817 ± 0.0019 h
- total protein half-life in vivo [12]: 1.5 ± 0.033 h
- total protein half-life in vivo [2]: 0.933 ± 0.25 h
- total protein half-life in vivo [3]: 2.88 ± 0.57 h
- total protein half-life in vivo [4]: 1.1 ± 0.09 h
- total protein half-life in vivo [5]: 0.811 ± 0.024 h
- total protein half-life in vivo [6]: 1.17 ± 0.17 h
- total protein half-life in vivo [7]: 1.08 ± 0.34 h
- total protein half-life in vivo [8]: 1.14 ± 0.14 h
- total protein half-life in vivo [9]: 1.81 ± 0.27 h
- total protein half-life in vivo [10]: 0.609 h
- total protein half-life in vivo [11]: 1.87 h

Sequence: MIFSDWPWRHWRQVRGETIALRLNDEQLNWRELCARVDELASGFAVQGVVEGSGVMLRAWNTPQTLLAWLALLQCGARVLPVNPQLPQPLLEELLPNLTLQFALVPDGENTFPALTSLHIQLVEGAHAATWQPTRLCSMTLTSGSTGLPKAAVHTYQAHLASAQGVLSLIPFGDHDDWLLSLPLFHVSGQGIMWRWLYAGARMTVRDKQPLEQMLAGCTHASLVPTQLWRLLVNRSSVSLKAVLLGGAAIPVELTEQAREQGIRCFCGYGLTEFASTVCAKEADGLADVGSPLPGREVKIVNNEVWLRAASMAEGYWRNGQLVSLVNDEGWYATRDRGEMHNGKLTIVGRLDNLFFSGGEGIQPEEVERVIAAHPAVLQVFIVPVADKEFGHRPVAVMEYDHESVDLSEWVKDKLARFQQPVRWLTLPPELKNGGIKISRQALKEWVQRQQ
- total protein half-life in vivo [12]: 4.96 h
- total protein half-life in vivo [2]: 3.92 h
- total protein half-life in vivo [5]: 3.2 h
- total protein half-life in vivo [6]: > 8 h
- total protein half-life in vivo [7]: 11.3 ± 1.4 h
- total protein half-life in vivo [8]: 4.4 h
- total protein half-life in vivo [10]: 6.327 ± 0.016 h
- total protein half-life in vivo [11]: 10.3 ± 1 h
